Legend:
[1] = target: GST-tagged version of human FcγRIIIA (human) (UniProt P08637); assay: AlphaLISA vs biotin-huIgG, supernatant, round 1
[2] = target: GST-tagged version of human FcγRIIIA (human) (UniProt P08637); assay: AlphaLISA vs biotin-huIgG, supernatant, round 3
[3] = target: GST-tagged version of human FcγRIIIA (human) (UniProt P08637); assay: AlphaLISA vs biotin-huIgG, supernatant, round 2

Chain of GST-tagged version of human FcγRIIIA (human) (P08637 17-208 limits assumed): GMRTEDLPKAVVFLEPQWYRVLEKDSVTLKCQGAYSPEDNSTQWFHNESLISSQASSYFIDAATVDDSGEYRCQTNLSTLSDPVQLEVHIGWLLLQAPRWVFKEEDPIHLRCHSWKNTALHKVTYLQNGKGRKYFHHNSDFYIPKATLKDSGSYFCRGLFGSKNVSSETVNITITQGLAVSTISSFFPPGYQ

Substance | % inhibition [1] | Alpha signal [1] | % inhibition [2] | Alpha signal [2] | % inhibition [3] | Alpha signal [3]
scFv-Fc/Fc, S298A in scFv-Fc (Fc fusion) | 76.5% | 17900 | 65% | 27500 | 68.5% | 25300
scFv-Fc/Fc, F243V + S239T in dummy Fc (Fc fusion) | 84.8% | 11600 | 84.1% | 12500 | 83% | 13700
scFv-Fc/Fc, K246V in dummy Fc (Fc fusion) |  | 43800 |  | 42800 |  | 44500
scFv-Fc/Fc, L309C in dummy Fc (Fc fusion) | 21.4% | 59700 | 21.4% | 61800 | 30.8% | 55600
scFv-Fc/Fc, I253V in dummy Fc (Fc fusion) | 23% | 58500 | 25.7% | 58400 | 23.5% | 61500
scFv-Fc/Fc, F243V in scFv-Fc (Fc fusion) | 45.1% | 41700 | 48.6% | 40400 | 47.7% | 42100
scFv-Fc/Fc, E294L in scFv-Fc (Fc fusion) |  | 24300 | 76.8% | 18200 |  | 22900
scFv-Fc/Fc, T307E in scFv-Fc (Fc fusion) | 71.5% | 21700 | 67.2% | 25800 | 76.4% | 18900
scFv-Fc/Fc, T256V in dummy Fc (Fc fusion) | 59.9% | 30500 | 63.3% | 28800 | 60.5% | 31800

From patent publication US20140112926A1
